Source: PMC3979106 (Structure(London, England:1993), 2014)

Tests used:
Ube2T (Homo sapiens) = Ube2T (Homo sapiens) (UniProt Q9NPD8); conditions: cited from earlier work
Human Ube2T Ser5Arg = target: T1, Human Ube2T Ser5Arg (human, UniProt Q9NPD8 1-197, Ser5Arg); assay: SEC; analytical size-exclusion chromatography, Superdex 75 10/300; RING domain and one E2 incubated 1 hr on ice in 0.1 M NaCl, 0.1 M Tris pH 8, 250 μM TCEP; complex read as a peak shift to the left; conditions: both partners purified
T1 construct: Ube2T, human, point mutant; also called Ser5Arg-Ube2T; source: E. coli, expressed as WT protein, purified; not shown: 6xHis-Smt3, N-terminal, cleaved
T1 sequence (looked up): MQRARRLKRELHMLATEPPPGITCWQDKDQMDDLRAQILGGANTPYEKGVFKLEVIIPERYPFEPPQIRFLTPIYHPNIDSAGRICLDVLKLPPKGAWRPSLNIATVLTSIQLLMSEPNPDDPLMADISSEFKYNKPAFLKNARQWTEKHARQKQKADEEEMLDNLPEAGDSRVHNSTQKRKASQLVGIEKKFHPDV

[1] = target: T2, Human Ube2T Arg99Ser/Ser101Arg (human, UniProt Q9NPD8 1-197, Arg99Ser | Ser101Arg); assay: as above; conditions: both partners purified
T2 construct: Ube2T, human, double point mutant; also called Arg99Ser/Ser101Arg-Ube2T; source: E. coli, expressed as WT protein, purified; not shown: 6xHis-Smt3, N-terminal, cleaved
T2 sequence (looked up): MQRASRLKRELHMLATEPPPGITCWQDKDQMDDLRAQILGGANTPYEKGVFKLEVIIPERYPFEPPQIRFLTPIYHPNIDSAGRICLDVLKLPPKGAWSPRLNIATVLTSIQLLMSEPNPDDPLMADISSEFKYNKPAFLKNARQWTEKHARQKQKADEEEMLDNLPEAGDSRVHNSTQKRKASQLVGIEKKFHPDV

Sequence of FANCL (Q9NW38 2-375): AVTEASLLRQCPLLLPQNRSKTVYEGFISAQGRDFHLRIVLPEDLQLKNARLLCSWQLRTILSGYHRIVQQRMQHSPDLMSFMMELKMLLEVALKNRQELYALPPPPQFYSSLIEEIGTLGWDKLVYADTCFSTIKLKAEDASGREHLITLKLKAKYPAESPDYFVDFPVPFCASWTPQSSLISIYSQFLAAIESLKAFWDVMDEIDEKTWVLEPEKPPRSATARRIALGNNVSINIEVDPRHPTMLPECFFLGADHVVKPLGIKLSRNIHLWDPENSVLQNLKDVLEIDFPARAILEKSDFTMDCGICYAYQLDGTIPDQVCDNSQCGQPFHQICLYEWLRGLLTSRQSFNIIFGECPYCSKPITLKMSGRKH

Row | Molecule | Kd (Ube2T (Homo sapiens)) [nM] | binding result (Human Ube2T Ser5Arg) | binding result [1]
1 | FANCL (from UniProt Q9NW38) | 500 | – | –
2 | Human FANCL RING domain (residues 289–375) (domain or fragment, UniProt Q9NW38 289-375, looked up, FANCL, human, RING domain, residues 289-375, cloned from synthetic codon-optimised human FANCL DNA (GeneArt); also called WT RING; source: E. coli BL21, purified (Ni-NTA, Ulp1 cleavage, Superdex); not shown: 6xHis-Smt3, N-terminal, cleaved) EIDFPARAILEKSDFTMDCGICYAYQLDGTIPDQVCDNSQCGQPFHQICLYEWLRGLLTSRQSFNIIFGECPYCSKPITLKMSGRKH | – | binds | binds
